Results: the domain aggregation screens of Martell et al. (2025)

Test: soluble fraction after stress (log2 fold change); higher = more stays soluble; pooled small domains, quantitative proteomics
Conditions: stress: 75 degC
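Further: 20 min heating vs room temperature control held 20 min.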

In order of rising “soluble fraction (log2)” value:
1. HMSEISAEAGKRIRYFRKSRSMTLEELAAVIHKSKATLSKYETGEISIDLDTLYDLAVALQVRAEQLLPAS  -4.35
2. HMSDTMTVTNVKYAIYLRSTPSEASDANIIMEIPVGSKVTYLDTPNNTFYKISYGGTVGYSKQIYLTF  -3.69
3. HMSEFGENLKKLRTARDLTQQELGAKVGLSKAVVSKYENGLGYPTFDVLIRIAAYFGVTTDYLLGV  -2.81
4. HMSAGYTYQNYQQDLKSGNVQNIHIYLSEEMYSGNVKVIYKNNKSVTFTVTDVTIAEAEARQVGISPIIYE  -2.38
5. HMSEATTVNYKYAVTISDLRIRKGPGTNYGSVGYTGKGVFTIVAEKGGWGKLKSGAGWISLNSKYGHKVS  -2.03
6. HMSEIYVDDINRKILYLLSQGIKTKSLLEHIPLSMSGIEKRKKQLKMLFSVEDGKDETLLEMAKEKGF  -2
7. HMSDNHYLLEIFLADLKSDEKFIRELAIFQLHHHIESDKVRAELKAAAETESDPYLKGMIESLLSSTS  -1.53
8. HMSAGPQGRTPREDELTVGTKVYVSRVGASGVVSSDVSRGKVVVQVGALRLTAAVSELLLLDG  -1.21
9. HMSEFSDRFRLLKDESGATLKELSEQLDITVPNLSYYMKGREPSYDILIKIADYFGVTTDWLIGRTDER  -1.18
10. HMSEILQLINKIDKKLEKGYTFANISRNHYEKIYKEEILNLYKTSKLKGEAEDSIKEVLESLLGDLRKP  -0.833
11. HMSDAKKRAFSKDEILYSLKNRPFTSFDIESLFDDESKKTFIGLLDKGEISEKKVAGTIFYYLR  -0.817
12. HMSAPAMTLDSIRSLLNDRDPWVVTQTVEWLVGLGPQVKTILETLTLESSDAARQAQNALDRINVRNYP  -0.796
13. HMSAVNLNDDEKAVYKSIKSGIRSLDELSLRTGMKIYELMAITVSLEMKGLVTKSPDGTLDAT  -0.743
14. HMSEKAQSENEDLIKILALLIHAAKIDENYSEKEKKLIISFAEMSSNKKLDREQINSLVDKAEQYEK  -0.532
15. HMSDVLPEAILERRLVKKGNRAVPQVLIKWTKLPATSATWEDFYVLQQRFPTALAWGQAPSPGGQM  -0.462
16. HMSAPNPGQMHSWTDTQGRTLQATFIKADATTVTLNWNGRIVPIPLANLNAASQKLARELASAS  -0.443
17. HMSAIEIDAEKILNYLTDRGGKMPYGDTTAPEVIKDKFNISKAAFKRALGFLLRSNKIEQIDGWTYI  -0.433
18. HMSALIGAHTLERIDSRDFEGVVMAWLPKRDGYDSLYKIYHIEDGDFEELDDREVQAAISLFIEGT  -0.381
19. HMSAHDLQVVLRWIGTDEPMTDQRYRITTEDGRTFEGRTDDAGLTERVASTIPFGRYSIEALD  -0.278
20. HMSDPELAIPRVVGLSGNDAQAALVKAGFSAVTVVTVKNSEVTSEQVTHVVPAEGAKAKASTPVTVVVSSS  -0.205
21. HMSDVTPDVVRALRKRLKLTQVQFGEIFGMTSKKVSAWEHGKAEPTEEQKQKIQSLLKENNEQ  -0.146
22. HMSEITMMQMEIPEGHNWENRLVKDVSMPTGSLAVMIKRHGETLIPGGDTRILAGDTIVLSVPAYESG  -0.112
23. HMSDNYYSILGIETDATTDMIKRAYRRLSLELHPDRTKDNPILTEKYKKVNEAYGVLNDNDRKHIYDLQNI  -0.109
24. HMSAPRRGETTAASLNLRAGPATDADILAQLPERTPLRVLQEDGEWLRVETHGNEGFVHRQFVAIPGDEP  0.0338
25. HMSASSTAPGSVTLRGAILTAWTAAGGERSKMGLPVGYEVRQADGTVTQTFEKGRISVSPTGTATI  0.0449
26. HMSDRQLKRQANILYTTRKLASKVGYDGLTMRGLAEASEVSPKTLYNLFSSKDELLAAALEDLVGIV  0.0601
27. HMSDTFTITTESGRIDKIITAHETTHTRSQVQKWLQDGLVTVNGNPVKANFKVTAGDVVTVTIPEVK  0.0601
28. HMSASSEALKTAVRKVLLNNRMTQDRMARDAGLSGSALSQWLHGKYQGDVPALEGRLAAWLADTQAS  0.0606
29. HMSARRHAVKHLDANQLQTRVARMLSEFGLTAKVSKDPNSNALIIDGAPEAQRIAAQLITTIDKE  0.0709
30. HMSDKEDIDKYLLTYGDLLFNRTNSSEWVGKTAIYRGEVSAIYAGYLIRIRSFLDAEYLNSVMNSKYA  0.1
31. HMSDLGEIEKIVDEVLAENITKVQEYKDGKKGLMGMFMGQIMKKSGGKADPKIANQLLTEKL  0.11
32. HMSDEEAISKLPGVGPAILEKLKEAGYNDIMTIAVDSPKNLAELAEIGEPTAAKIIAAAKKAAD  0.113
33. HMSDIHARIAAALAALTSPEKIHDLVVDDDGKVSFTFHLTREDPATLVRDARKAVQAVDGVRDVKVNVVDP  0.134
34. HMSDKTSLTDDDKALINSMLPDYDKYPSVAKLQAVEIAKSSSKMATLLMLDERYNETVSEALE  0.152
35. HMSEEAMVSNFRQQEILELARKDGKVTVDGLAELYDVTVQTIRRDLSDLADSGRLKRVHGGAVVPS  0.162
36. HMSDIDIDVENDRAALAIAGGKLNHLVGARGEVLDALQELTRLAVQTSLGERSRLMLDIDNFRSD  0.185
37. HMSASSDATRQRVLRAAEQLFGAKGVENVSLREMTTLAGVNLAAVNYHFGSKDALAEAVFEALSER  0.253
38. HMSAIKSVTTQLDNTKLRTGPDVSYQYTQSYPANTKLTYINKSGTWYQVKDADGNTGYVASWVVTPSE  0.586
